# In patent US20240409617A1:
# B1: Ab 38 scFv-Fc (scFv, V domains shown)
# VH: QVTLKESGPTLVKPTQTLTLTCTFSGFSLTTSGVSVGWIRQPPGKALEWLALIHWDDDKRYSPSLRSRLTITRDTSKNQVVLTVTDMDPADTGTYYCASFIMTVYAEYFEDWGQGTLVTVSS
# VL: EIVLTQSPATLSVSPGERATLSCRASQSVSSNLAWYQQKPGQAPRLLMYDVSTRATGIPARFSGSGSGTEFSLTISSLQSEDFAVYYCQQRGAWPLTFGGGTKVEIK
# B2: Ab 31 scFv-Fc (scFv, V domains shown)
# VH: QVQLVQSGAEVKKPGSSVKVSCKASGGTFSSYTISWVRQAPGQGLEWMGGIIPILGTPNYAQKFQDRVAITADKSTSTAYMELSSLRSEDTAVYYCAVGSGWYSGFDYWGQGTLVTVSS
# VL: NFMLTQPHSVSESPGKTVTISCTGSSGSIASNYVQWYQQRPGSAPTTVIYEDSQRPSGVPDRFSGSIDSSSNSASLTISGLKTEDEADYYCQSFHNSNPVIFGGGTKLTVL
# Experiments:
# [1] = molecular target: P.1 Spike (SARS-CoV-2 spike protein, Brazilian variant P.1) (SARS-CoV-2)
# [2] = molecular target: D614G Spike (SARS-CoV-2 spike protein, D614G) (SARS-CoV-2)
# [3] = molecular target: B.1.351 Spike (SARS-CoV-2 spike protein, South African variant B.1.351) (SARS-CoV-2)
# [4] = molecular target: B.1.1.7 Spike (SARS-CoV-2 spike protein, UK variant B.1.1.7) (SARS-CoV-2)
Binder,Kd [1] [pM],Response [1],Kd [2] [pM],Response [2],Kd [3] [pM],Response [3],Kd [4] [pM],Response [4]
B1,7.23,0.228,3.37,0.328,7.62,0.234,1.47,0.267
B2,8.97,0.0789,–,–,< 1,0.09,< 1,0.135
